Test results taken from the supplement of paper PMC9233669.
Variants at the floor of the assay were thinned out.

Key:
[1] = tested on: biotinyl-Ile-oxazolone; test: self-aminoacylation, catalytic enhancement (BIO) (fold over background); higher = more active; k-Seq, kA / k0A0; sequences stand for … in GGGAAUGGAUCCACAUCUACGAAUUC…UUCACUGCAGACUUGACGAAGCUG
Procedure, shortened: (§1)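 Working in 50 μL HEPES/NaCl/KCl/MgCl2/CaCl2 buffer with 5% acetonitrile at pH 6.9–7.0, mutagenized RNA pools (0.43 μM; 21-nt variable region) were reacted with 2–1250 μM of each biotinyl-aminoacyl-oxazolone for 90 minutes at room temperature. Streptavidin capture followed, with quantification by triplicate qPCR and Illumina sequencing. Catalytic enhancement is reported as median kA over the uncatalyzed rate, the low-activity peak of a bimodal Gaussian fit to the data.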

[2] = tested on: biotinyl-Leu-oxazolone; test: self-aminoacylation, catalytic enhancement (BLO) (fold over background); higher = more active; k-Seq, kA / k0A0; sequences stand for … in GGGAAUGGAUCCACAUCUACGAAUUC…UUCACUGCAGACUUGACGAAGCUG
Procedure, shortened: as §1

[3] = tested on: biotinyl-Trp-oxazolone; test: self-aminoacylation, catalytic enhancement (BWO) (fold over background); higher = more active; k-Seq, kA / k0A0; sequences stand for … in GGGAAUGGAUCCACAUCUACGAAUUC…UUCACUGCAGACUUGACGAAGCUG
Procedure, shortened: as §1

[4] = tested on: biotinyl-Val-oxazolone; test: self-aminoacylation, catalytic enhancement (BVO) (fold over background); higher = more active; k-Seq, kA / k0A0; sequences stand for … in GGGAAUGGAUCCACAUCUACGAAUUC…UUCACUGCAGACUUGACGAAGCUG
Procedure, shortened: as §1

[5] = tested on: biotinyl-Phe-oxazolone; test: self-aminoacylation, catalytic enhancement (BFO) (fold over background); higher = more active; k-Seq, kA / k0A0; sequences stand for … in GGGAAUGGAUCCACAUCUACGAAUUC…UUCACUGCAGACUUGACGAAGCUG
Procedure, shortened: as §1

[6] = tested on: biotinyl-Met-oxazolone; test: self-aminoacylation, catalytic enhancement (BMO) (fold over background); higher = more active; k-Seq, kA / k0A0; sequences stand for … in GGGAAUGGAUCCACAUCUACGAAUUC…UUCACUGCAGACUUGACGAAGCUG
Procedure, shortened: as §1

| Sequence | self-aminoacylation [1] | self-aminoacylation [2] | self-aminoacylation [3] | self-aminoacylation [4] | self-aminoacylation [5] | self-aminoacylation [6] |
| --- | --- | --- | --- | --- | --- | --- |
| AUUACCCUGCUCAUCGAAUGA [Fam2.1 aminoacylation ribozyme variant] | 0.867 | 0.735 | 1.32 | 0.974 | 0.772 | 0.845 |
| AUUCACAUAGGUCAUCGGAUG [Fam2.2 aminoacylation ribozyme variant] | 0.903 | 0.649 | 0.403 | 0.857 | 0.549 | 0.698 |
| AUUACCCUGAUCAUCGCGUGA [Fam2.1 aminoacylation ribozyme variant] | 5.83 | 14.1 | 14.9 | 7.01 | 99.5 | 14.7 |
| AUUCACCUCGAUCAUCGGGUG [Fam2.2 aminoacylation ribozyme variant] | 3.11 | 5.94 | 3.99 | 3.18 | 39.4 | 4.77 |
| AAGUUUGCUAAUAGUCCAAAG [Fam3.1 aminoacylation ribozyme variant] | 1.21 | 0.966 | 1.75 | 1.18 | 3.72 | 1.34 |
| AUUACCCUGUUCAUCCAGUGA [Fam2.1 aminoacylation ribozyme variant] | 3.76 | 5.85 | 8.43 | 3.52 | 23 | 5.95 |
| AUGUUUGCUAAUCGUCGCAAG [Fam3.1 aminoacylation ribozyme variant] | 1.32 | 1.32 | 1.01 | 1.44 | 1.59 | 1.13 |
| AUUAAUCUGGUCAUCGAGUGA [Fam2.1 aminoacylation ribozyme variant] | 3.24 | 5.01 | 6.95 | 2.88 | 15.6 | 4.7 |
| AUUAACCUAGGUGAUCGGGUG [Fam2.2 aminoacylation ribozyme variant] | 2.31 | 3.63 | 2.9 | 2.1 | 8.95 | 3.25 |
| CCACACUUCAAGCAAUCGCAC [Fam1B.1 aminoacylation ribozyme variant] | 0.76 | 0.465 | 0.672 | 0.889 | 0.785 | 0.814 |
| AUUCACCUAGUUGAUCGGGUG [Fam2.2 aminoacylation ribozyme variant] | 2.5 | 4.3 | 4.26 | 2.79 | 23.9 | 3.66 |
| AUUCACCUAGGUAAUCGGGUU [Fam2.2 aminoacylation ribozyme variant] | 0.997 | 1.17 | 0.977 | 1.16 | 0.331 | 1.09 |
| AAGUUUACUAAUAGUCGCAAA [Fam3.1 aminoacylation ribozyme variant] | 1.95 | 1.35 | 2.06 | 1.61 | 2.01 | 1.44 |
| AUUCACCAAGGUCAUCGGGUA [Fam2.2 aminoacylation ribozyme variant] | 3.77 | 3.23 | 4.89 | 3.04 | 22.5 | 2.43 |
| ACGUUUGCUUAUAGUCGCAAG [Fam3.1 aminoacylation ribozyme variant] | 1.32 | 1.67 | 1.75 | 1.46 | 1.76 | 1.68 |
| CUACUUAAAACAAUCGGGCUG [Fam1A.1 aminoacylation ribozyme variant] | 1.31 | 0.999 | 0.924 | 1.02 | 0.623 | 1.05 |
| AUUCAUCUAGGUCAUCUGGUG [Fam2.2 aminoacylation ribozyme variant] | 2.1 | 4.25 | 2.86 | 2.16 | 18.8 | 3.4 |
| AUUCACGUAGGUCAUCAGGUG [Fam2.2 aminoacylation ribozyme variant] | 1.99 | 2.7 | 2.88 | 2.24 | 5.34 | 2.77 |
| AAUUUUGCUAAUACUCGCAAG [Fam3.1 aminoacylation ribozyme variant] | 1.5 | 1.47 | 1.03 | 1.35 | 1.5 | 1.01 |
| AUUCACCUACGUCUUCGGGUG [Fam2.2 aminoacylation ribozyme variant] | 2.44 | 4.28 | 3.34 | 2.81 | 24 | 3.36 |
| CUUACCCUGGUCAUAGAGUGA [Fam2.1 aminoacylation ribozyme variant] | 2.86 | 5.85 | 7.46 | 2.83 | 24.2 | 6.37 |
| CUACUUCAAACAAUCGGCCAG [Fam1A.1 aminoacylation ribozyme variant] | 1.44 | 1.19 | 0.954 | 1.36 | 1.84 | 1.02 |
